# Experiments:
# [1] = target: T1, QuiR2;QuiR (Listeria monocytogenes EGD-e;Listeria monocytogenes EGD-e?) (UniProt Q8Y543+Q8Y9N7); assay: EMSA
# T1 sequence 1: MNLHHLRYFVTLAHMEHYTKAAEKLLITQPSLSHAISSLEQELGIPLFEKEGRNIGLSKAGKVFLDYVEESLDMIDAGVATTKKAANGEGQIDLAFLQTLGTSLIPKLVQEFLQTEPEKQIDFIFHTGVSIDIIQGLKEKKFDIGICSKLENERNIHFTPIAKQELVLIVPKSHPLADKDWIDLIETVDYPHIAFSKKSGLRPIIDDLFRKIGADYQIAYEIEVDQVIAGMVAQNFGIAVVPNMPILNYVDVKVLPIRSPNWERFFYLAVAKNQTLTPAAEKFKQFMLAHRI
# T1 sequence 2: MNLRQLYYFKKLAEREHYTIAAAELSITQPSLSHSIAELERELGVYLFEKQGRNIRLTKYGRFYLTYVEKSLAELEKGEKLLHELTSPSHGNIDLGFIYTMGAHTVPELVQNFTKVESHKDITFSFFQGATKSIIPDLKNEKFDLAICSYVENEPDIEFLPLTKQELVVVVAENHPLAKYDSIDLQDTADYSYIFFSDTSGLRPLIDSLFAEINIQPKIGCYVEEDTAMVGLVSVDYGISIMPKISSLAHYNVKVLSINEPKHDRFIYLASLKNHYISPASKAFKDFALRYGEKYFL
# [2] = target: T2, QuiR2 (Listeria monocytogenes EGD-e) (UniProt Q8Y543); assay: EMSA
# T2 sequence: T1 sequence 1
sequence,measurement,setting,value
CGCAAGTTCATCGGTTAACCTCCTCGGAATGCCTTGATAACTCTATTGTAAGCGATTGTATAGAAAAAATCTATGGATAAATCGAAAAATATACATTAGATTAATAATTATTCCTGACTTATAATGAAAGAGAAATAAGATTGTGCATTATTGAACGTGAATAATGTAACAAATCATTTGCTGAGATTATAGTCGCAGGAGGCTTATTATGACAGATTATCCGAG (double strand) [qui1 intergenic region probe (225 nt)],binding,[1],binds
same,binding,[2],binds

# Reference: paper doi:10.1101/2025.04.08.647683
